Target: T1, CD3ε homodimer protein (human, UniProt P07766 23-126, limits assumed)
T1 construct: also called CD3 (CD3ε)
Assay: SPR Biacore T200, CD3ε homodimer on chip;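 also: Light-chain single-residue variant antibodies injected over amine-coupled CD3ε homodimer on a CM4 chip at 25 °C, bound amount divided by that of the GLS3000-containing antibody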
Method: Each one-amino acid altered form constructed, expressed, and purified in the paragraph (6-2) was evaluated using Biacore T200 (GE Healthcare Japan Corp.). An appropriate amount of CD3ε homodimer protein was immobilized onto Sensor chip CM4 (GE Healthcare Japan Corp.) by the amine coupling method. Then, the antibody having an appropriate concentration was injected thereto as an analyte and allowed to interact with the CD3ε homodimer protein on the sensor chip. Then, the sensor chip was regenerated by the injection of 10 mmol/L glycine-HCl (pH 1.5). The assay was conducted at 25° C., and HBS-EP+ (GE Healthcare Japan Corp.) was used as a running buffer. […] Each parameter was calculated using Biacore T200 Evaluation Software (GE Healthcare Japan Corp.).
Specifically, when the amount of the GLS3000-containing antibody bound was defined as X and the amount of the L chain one-amino acid altered form bound was defined as Y, a value of Z (ratio of amounts bound)=Y/X was used.

T1 sequence (P07766 23-126 limits assumed): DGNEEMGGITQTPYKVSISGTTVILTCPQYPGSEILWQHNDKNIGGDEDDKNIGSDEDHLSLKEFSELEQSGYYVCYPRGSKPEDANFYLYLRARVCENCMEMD

Row | Binder | ratio of amount bound vs unaltered GLS3000
1 | GLS3000 S27eI one-arm antibody (antibody, human IgG1, kappa, L234A L235A, N297A, name in Kabat numbering) heavy: QVQLVESGGGVVQPGRSLRLSCAASGFTFSNAWMHWVRQAPGKGLEWVAQIKAKSNNYATYYAESVKGRFTISRDDSKNSLYLQMNSLKTEDTAVYYCRYVHYGAYYGVDAWGQGTTVTVSSASTKGPSVFPLAPSSKSTSGGTAALGCLVKDYFPEPVTVSWNSGALTSGVHTFPAVLQSSGLYSLSSVVTVPSSSLGTQTYICNVNHKPSNTKVDKKVEPKSCDKTHTCPPCPAPEAAGGPSVFLFPPKPKDTLMISRTPEVTCVVVDVSHEDPEVKFNWYVDGVEVHNAKTKPREEQYASTYRVVSVLTVLHQDWLNGKEYKCKVSNKALPAPIEKTISKAKGQPREPQVYTLPPSRCELTKNQVSLSCAVKGFYPSDIAVEWESNGQPENNYKTTPPVLDSDGSFFLVSKLTVDKSRWQQGNVFSCSVMHEALHNHYTQKSLSLSPDYKDDDDK EPKSSDKTHTCPPCPAPELLGGPSVFLFPPKPKDTLMISRTPEVTCVVVDVSHEDPEVKFNWYVDGVEVHNAKTKPREEQYNSTYRVVSVLTVLHQDWLNGKEYKCKVSNKALPAPIEKTISKAKGQPREPQVCTLPPSRDELTKNQVSLWCLVKGFYPSDIAVEWESNGQPENNYKTTPPVLDSDGSFFLYSKLTVDKSRWQQGNVFSCSVMHEALHNRYTQKSLSLSP light: DIVMTQSPLSLPVTPGEPASISCRSSQSLVHINRNTYLHWYQQKPGQAPRLLIYKVSNRFSGVPDRFSGSGSGTDFTLKISRVEAEDVGVYYCGQGTQVPYTFGQGTKLEIKRTVAAPSVFIFPPSDEQLKSGTASVVCLLNNFYPREAKVQWKVDNALQSGNSQESVTEQDSKDSTYSLSSTLTLSKADYEKHKVYACEVTHQGLSSPVTKSFNRGEC | 1.07
2 | GLS3000 S27eL one-arm antibody (antibody, human IgG1, kappa, L234A L235A, N297A, name in Kabat numbering) heavy: QVQLVESGGGVVQPGRSLRLSCAASGFTFSNAWMHWVRQAPGKGLEWVAQIKAKSNNYATYYAESVKGRFTISRDDSKNSLYLQMNSLKTEDTAVYYCRYVHYGAYYGVDAWGQGTTVTVSSASTKGPSVFPLAPSSKSTSGGTAALGCLVKDYFPEPVTVSWNSGALTSGVHTFPAVLQSSGLYSLSSVVTVPSSSLGTQTYICNVNHKPSNTKVDKKVEPKSCDKTHTCPPCPAPEAAGGPSVFLFPPKPKDTLMISRTPEVTCVVVDVSHEDPEVKFNWYVDGVEVHNAKTKPREEQYASTYRVVSVLTVLHQDWLNGKEYKCKVSNKALPAPIEKTISKAKGQPREPQVYTLPPSRCELTKNQVSLSCAVKGFYPSDIAVEWESNGQPENNYKTTPPVLDSDGSFFLVSKLTVDKSRWQQGNVFSCSVMHEALHNHYTQKSLSLSPDYKDDDDK EPKSSDKTHTCPPCPAPELLGGPSVFLFPPKPKDTLMISRTPEVTCVVVDVSHEDPEVKFNWYVDGVEVHNAKTKPREEQYNSTYRVVSVLTVLHQDWLNGKEYKCKVSNKALPAPIEKTISKAKGQPREPQVCTLPPSRDELTKNQVSLWCLVKGFYPSDIAVEWESNGQPENNYKTTPPVLDSDGSFFLYSKLTVDKSRWQQGNVFSCSVMHEALHNRYTQKSLSLSP light: DIVMTQSPLSLPVTPGEPASISCRSSQSLVHLNRNTYLHWYQQKPGQAPRLLIYKVSNRFSGVPDRFSGSGSGTDFTLKISRVEAEDVGVYYCGQGTQVPYTFGQGTKLEIKRTVAAPSVFIFPPSDEQLKSGTASVVCLLNNFYPREAKVQWKVDNALQSGNSQESVTEQDSKDSTYSLSSTLTLSKADYEKHKVYACEVTHQGLSSPVTKSFNRGEC | 1.17
3 | GLS3000 S27eM one-arm antibody (antibody, human IgG1, kappa, L234A L235A, N297A, name in Kabat numbering) heavy: QVQLVESGGGVVQPGRSLRLSCAASGFTFSNAWMHWVRQAPGKGLEWVAQIKAKSNNYATYYAESVKGRFTISRDDSKNSLYLQMNSLKTEDTAVYYCRYVHYGAYYGVDAWGQGTTVTVSSASTKGPSVFPLAPSSKSTSGGTAALGCLVKDYFPEPVTVSWNSGALTSGVHTFPAVLQSSGLYSLSSVVTVPSSSLGTQTYICNVNHKPSNTKVDKKVEPKSCDKTHTCPPCPAPEAAGGPSVFLFPPKPKDTLMISRTPEVTCVVVDVSHEDPEVKFNWYVDGVEVHNAKTKPREEQYASTYRVVSVLTVLHQDWLNGKEYKCKVSNKALPAPIEKTISKAKGQPREPQVYTLPPSRCELTKNQVSLSCAVKGFYPSDIAVEWESNGQPENNYKTTPPVLDSDGSFFLVSKLTVDKSRWQQGNVFSCSVMHEALHNHYTQKSLSLSPDYKDDDDK EPKSSDKTHTCPPCPAPELLGGPSVFLFPPKPKDTLMISRTPEVTCVVVDVSHEDPEVKFNWYVDGVEVHNAKTKPREEQYNSTYRVVSVLTVLHQDWLNGKEYKCKVSNKALPAPIEKTISKAKGQPREPQVCTLPPSRDELTKNQVSLWCLVKGFYPSDIAVEWESNGQPENNYKTTPPVLDSDGSFFLYSKLTVDKSRWQQGNVFSCSVMHEALHNRYTQKSLSLSP light: DIVMTQSPLSLPVTPGEPASISCRSSQSLVHMNRNTYLHWYQQKPGQAPRLLIYKVSNRFSGVPDRFSGSGSGTDFTLKISRVEAEDVGVYYCGQGTQVPYTFGQGTKLEIKRTVAAPSVFIFPPSDEQLKSGTASVVCLLNNFYPREAKVQWKVDNALQSGNSQESVTEQDSKDSTYSLSSTLTLSKADYEKHKVYACEVTHQGLSSPVTKSFNRGEC | 1.23
4 | GLS3000 S27eK one-arm antibody (antibody, human IgG1, kappa, L234A L235A, N297A, name in Kabat numbering) heavy: QVQLVESGGGVVQPGRSLRLSCAASGFTFSNAWMHWVRQAPGKGLEWVAQIKAKSNNYATYYAESVKGRFTISRDDSKNSLYLQMNSLKTEDTAVYYCRYVHYGAYYGVDAWGQGTTVTVSSASTKGPSVFPLAPSSKSTSGGTAALGCLVKDYFPEPVTVSWNSGALTSGVHTFPAVLQSSGLYSLSSVVTVPSSSLGTQTYICNVNHKPSNTKVDKKVEPKSCDKTHTCPPCPAPEAAGGPSVFLFPPKPKDTLMISRTPEVTCVVVDVSHEDPEVKFNWYVDGVEVHNAKTKPREEQYASTYRVVSVLTVLHQDWLNGKEYKCKVSNKALPAPIEKTISKAKGQPREPQVYTLPPSRCELTKNQVSLSCAVKGFYPSDIAVEWESNGQPENNYKTTPPVLDSDGSFFLVSKLTVDKSRWQQGNVFSCSVMHEALHNHYTQKSLSLSPDYKDDDDK EPKSSDKTHTCPPCPAPELLGGPSVFLFPPKPKDTLMISRTPEVTCVVVDVSHEDPEVKFNWYVDGVEVHNAKTKPREEQYNSTYRVVSVLTVLHQDWLNGKEYKCKVSNKALPAPIEKTISKAKGQPREPQVCTLPPSRDELTKNQVSLWCLVKGFYPSDIAVEWESNGQPENNYKTTPPVLDSDGSFFLYSKLTVDKSRWQQGNVFSCSVMHEALHNRYTQKSLSLSP light: DIVMTQSPLSLPVTPGEPASISCRSSQSLVHKNRNTYLHWYQQKPGQAPRLLIYKVSNRFSGVPDRFSGSGSGTDFTLKISRVEAEDVGVYYCGQGTQVPYTFGQGTKLEIKRTVAAPSVFIFPPSDEQLKSGTASVVCLLNNFYPREAKVQWKVDNALQSGNSQESVTEQDSKDSTYSLSSTLTLSKADYEKHKVYACEVTHQGLSSPVTKSFNRGEC | 1.59

Next, values leading:

Row | ratio of amount bound vs unaltered GLS3000 | Binder
5 | 1.26 | GLS3000 S27eP one-arm antibody (antibody, human IgG1, kappa, L234A L235A, N297A, name in Kabat numbering) heavy: QVQLVESGGGVVQPGRSLRLSCAASGFTFSNAWMHWVRQAPGKGLEWVAQIKAKSNNYATYYAESVKGRFTISRDDSKNSLYLQMNSLKTEDTAVYYCRYVHYGAYYGVDAWGQGTTVTVSSASTKGPSVFPLAPSSKSTSGGTAALGCLVKDYFPEPVTVSWNSGALTSGVHTFPAVLQSSGLYSLSSVVTVPSSSLGTQTYICNVNHKPSNTKVDKKVEPKSCDKTHTCPPCPAPEAAGGPSVFLFPPKPKDTLMISRTPEVTCVVVDVSHEDPEVKFNWYVDGVEVHNAKTKPREEQYASTYRVVSVLTVLHQDWLNGKEYKCKVSNKALPAPIEKTISKAKGQPREPQVYTLPPSRCELTKNQVSLSCAVKGFYPSDIAVEWESNGQPENNYKTTPPVLDSDGSFFLVSKLTVDKSRWQQGNVFSCSVMHEALHNHYTQKSLSLSPDYKDDDDK EPKSSDKTHTCPPCPAPELLGGPSVFLFPPKPKDTLMISRTPEVTCVVVDVSHEDPEVKFNWYVDGVEVHNAKTKPREEQYNSTYRVVSVLTVLHQDWLNGKEYKCKVSNKALPAPIEKTISKAKGQPREPQVCTLPPSRDELTKNQVSLWCLVKGFYPSDIAVEWESNGQPENNYKTTPPVLDSDGSFFLYSKLTVDKSRWQQGNVFSCSVMHEALHNRYTQKSLSLSP light: DIVMTQSPLSLPVTPGEPASISCRSSQSLVHPNRNTYLHWYQQKPGQAPRLLIYKVSNRFSGVPDRFSGSGSGTDFTLKISRVEAEDVGVYYCGQGTQVPYTFGQGTKLEIKRTVAAPSVFIFPPSDEQLKSGTASVVCLLNNFYPREAKVQWKVDNALQSGNSQESVTEQDSKDSTYSLSSTLTLSKADYEKHKVYACEVTHQGLSSPVTKSFNRGEC
6 | 1.16 | GLS3000 S27eN one-arm antibody (antibody, human IgG1, kappa, L234A L235A, N297A, name in Kabat numbering) heavy: QVQLVESGGGVVQPGRSLRLSCAASGFTFSNAWMHWVRQAPGKGLEWVAQIKAKSNNYATYYAESVKGRFTISRDDSKNSLYLQMNSLKTEDTAVYYCRYVHYGAYYGVDAWGQGTTVTVSSASTKGPSVFPLAPSSKSTSGGTAALGCLVKDYFPEPVTVSWNSGALTSGVHTFPAVLQSSGLYSLSSVVTVPSSSLGTQTYICNVNHKPSNTKVDKKVEPKSCDKTHTCPPCPAPEAAGGPSVFLFPPKPKDTLMISRTPEVTCVVVDVSHEDPEVKFNWYVDGVEVHNAKTKPREEQYASTYRVVSVLTVLHQDWLNGKEYKCKVSNKALPAPIEKTISKAKGQPREPQVYTLPPSRCELTKNQVSLSCAVKGFYPSDIAVEWESNGQPENNYKTTPPVLDSDGSFFLVSKLTVDKSRWQQGNVFSCSVMHEALHNHYTQKSLSLSPDYKDDDDK EPKSSDKTHTCPPCPAPELLGGPSVFLFPPKPKDTLMISRTPEVTCVVVDVSHEDPEVKFNWYVDGVEVHNAKTKPREEQYNSTYRVVSVLTVLHQDWLNGKEYKCKVSNKALPAPIEKTISKAKGQPREPQVCTLPPSRDELTKNQVSLWCLVKGFYPSDIAVEWESNGQPENNYKTTPPVLDSDGSFFLYSKLTVDKSRWQQGNVFSCSVMHEALHNRYTQKSLSLSP light: DIVMTQSPLSLPVTPGEPASISCRSSQSLVHNNRNTYLHWYQQKPGQAPRLLIYKVSNRFSGVPDRFSGSGSGTDFTLKISRVEAEDVGVYYCGQGTQVPYTFGQGTKLEIKRTVAAPSVFIFPPSDEQLKSGTASVVCLLNNFYPREAKVQWKVDNALQSGNSQESVTEQDSKDSTYSLSSTLTLSKADYEKHKVYACEVTHQGLSSPVTKSFNRGEC

Source: US20260049138A1 (Chugai, published 2026)
